From IntAct's records for PubMed 21526221

B1: SWI5-dependent HO expression protein 3 (Saccharomyces cerevisiae), P38272 (parent)
chain: MSDQDNTQTSSSKLAPHHNIFMANLESSPTKDRNTSSQNASSSRVIESLHDQIDMLTKTNLQLTTQSQNLLSKLELAQSKESKLLENLNLLKNENENLNSIFERKNKKLKELEKDYSELSNRYNEQKEKMDQLSKLAKNSSAIEQSCSEKLQNMEVNYNSLLESQNLYRDHYSDEISKLNEKIGLLELELSNQNLNYGSDTSSNSDIELNLNKFNDSVKDLKSLETEKDSKLSKIITHSLDELNLQSWLNLYQTNENLISTFAEKMDLKDVLKRNDEKISNKGAVVQTLKKNVQTQVESNNADALSSNNAQDMLPIKMVKLRKTPNTNDSSSNGNSSNNKRRSFYTASPLLSSGSIPKSASPVLPGVKRTASVRKPSSSSSKTNVTHNNDPSTSPTISVPPGVTRTVSSTHKKKGNSMVVHGAQS

Variants of: B1
Conditions: with she2_yeast SHE2, P36068
Sequence of she2_yeast SHE2, P36068 (P36068 whole entry): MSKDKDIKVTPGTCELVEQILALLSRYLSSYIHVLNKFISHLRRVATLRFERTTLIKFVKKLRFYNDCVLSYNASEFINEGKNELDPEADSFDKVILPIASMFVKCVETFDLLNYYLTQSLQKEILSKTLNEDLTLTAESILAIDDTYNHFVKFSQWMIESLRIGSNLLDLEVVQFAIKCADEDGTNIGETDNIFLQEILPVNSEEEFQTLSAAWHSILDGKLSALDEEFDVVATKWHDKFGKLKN
In the case of L364A;V367A, the “effect of a mutation on the interaction” value is reported as “disrupting interaction”.
